Source: patent US20220401521A1 (NANJING HANXIN PHARMACEUTICAL TECHNOLOGY, published 2022)
Blank lines part the entries; values can stand above or below the binder they belong to. No end group written: not given here.

Assays:
[1] = target: melanocortin receptor 2 (MC2R); assay: cell-based or functional assay
[2] = target: melanocortin receptor 2 (MC2R); assay: cell-based or functional assay; remark: listed apart in the source

Sequence of melanocortin receptor 2 (MC2R) (Q01718 whole entry): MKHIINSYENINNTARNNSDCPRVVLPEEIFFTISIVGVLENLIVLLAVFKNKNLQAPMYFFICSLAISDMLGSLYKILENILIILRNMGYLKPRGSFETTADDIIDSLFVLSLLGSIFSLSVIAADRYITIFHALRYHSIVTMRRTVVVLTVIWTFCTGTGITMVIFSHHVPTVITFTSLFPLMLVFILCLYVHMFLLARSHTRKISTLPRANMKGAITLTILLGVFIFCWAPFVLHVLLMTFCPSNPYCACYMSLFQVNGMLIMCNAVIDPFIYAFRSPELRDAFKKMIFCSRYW

- EC50(nM), calcium ion signal in CHO-K1 cells expressing MC2R [1]: 180 nM
- activity of high-purity ACTH relative to low-purity ACTH (calcium ion signal, MC2R cells) [2]: 1.6 fold
B1: high-purity ACTH (human sequence SEQ ID NO: 3, 99.88%) (peptide)
peptide: SYSMEHFRWGKPVGKKRRPVKVYPNGAEDESAEAFPLEF
modifications: also: acetate salt

- EC50(nM), calcium ion signal in CHO-K1 cells expressing MC2R [1]: 288 nM
B2: low-purity ACTH (human sequence SEQ ID NO: 3, 75.72%) (peptide)
peptide: B1 peptide
